From publication PMC4072592, “The EJC Binding and Dissociating Activity of PYM Is Regulated in Drosophila” (PLoS Genetics, 2014)

Molecular target: T1, FL-PYM-GFP (S2 cells) (Drosophila, UniProt P82804 1-207)
T1 construct: Drosophila PYM (wibg, CG30176), full length coding region amplified from ovarian cDNA; also called GFP-tagged FL-PYM; source: S2 cells, transiently transfected, in cytoplasmic extract; not shown: eGFP, C-terminal, kept
T1 sequence (looked up): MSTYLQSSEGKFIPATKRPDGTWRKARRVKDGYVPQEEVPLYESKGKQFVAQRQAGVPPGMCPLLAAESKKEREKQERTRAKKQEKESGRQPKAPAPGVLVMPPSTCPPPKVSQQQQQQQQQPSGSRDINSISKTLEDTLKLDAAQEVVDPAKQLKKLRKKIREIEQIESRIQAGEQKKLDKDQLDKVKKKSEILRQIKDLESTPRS
Assay: co-IP + cross-linking; as the native GFP-Trap IP from S2 cell extracts, but extracts cross-linked with 1 mM DSP for 1 h at 4°C before the IP; blots quantified by densitometry
Conditions: partners not purified

B1: Y14-Mago heterodimer, endogenous in S2 cells (complex)
chain 1: not shown
chain 2: not shown
notes: Y14 (Tsunagi), Drosophila, endogenous; Mago nashi (Mago), Drosophila, endogenous; also called Mago and Y14; Mago-Y14; source: endogenous, cytoplasmic extract of Drosophila S2 cells
- fold increase of binding upon DSP treatment against native: 1.7 fold
